Consider two substances from paper PMC2279300.

In assay [1] the target is biotinylated oligopeptide spanning one repeat unit of the TARP phosphodomain, first tyrosine phosphorylated (pY1) (Chlamydia trachomatis serovar L2).
Assay [2] concerns the target biotinylated oligopeptide spanning one repeat unit of the TARP phosphodomain, second tyrosine phosphorylated (pY2) (Chlamydia trachomatis serovar L2).

Sequence of biotinylated oligopeptide spanning one repeat unit of the TARP phosphodomain, first tyrosine phosphorylated (pY1) (Chlamydia trachomatis serovar L2) (Q6GX35 174-222): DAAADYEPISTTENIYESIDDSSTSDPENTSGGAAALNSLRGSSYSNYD
Sequence of biotinylated oligopeptide spanning one repeat unit of the TARP phosphodomain, second tyrosine phosphorylated (pY2) (Chlamydia trachomatis serovar L2) (Q6GX35 174-222): as above

In assay [1], “Sos1 (from UniProt Q07889 1-1333) (natural protein)” showed a guanine nucleotide exchange activity towards His-Rac1 of the pY1 oligopeptide precipitate from regular HeLa lysate (32P label retained on filters) of 31000 CPM.

“Vav2 (from UniProt P52735 1-878) (natural protein)”: in assay [2], the guanine nucleotide exchange activity towards His-Cdc42 of the pY2 oligopeptide precipitate from lysate supplemented with PI 3,4,5-P3 (32P label retained on filters) was 23000 CPM and the guanine nucleotide exchange activity towards His-Rac1 of the pY2 oligopeptide precipitate from lysate supplemented with PI 3,4,5-P3 (32P label retained on filters) was found to be 31700 CPM. In assay [1], this substance gave a guanine nucleotide exchange activity towards His-Cdc42 of the pY1 oligopeptide precipitate from lysate supplemented with PI 3,4,5-P3 (32P label retained on filters) of 28700 CPM and a guanine nucleotide exchange activity towards His-Rac1 of the pY1 oligopeptide precipitate from lysate supplemented with PI 3,4,5-P3 (32P label retained on filters) of 51200 CPM.
